Test results: patent US20240400689A1 (ANTENGENE BIOLOGICS, published 2024)

T1: human CD276 protein (human, UniProt Q5ZPR3 29-534)
T1 construct: whole, on cells; for SKOV3 and the other cancer lines the protein is the cells' own; also called B7-H3; B7H3
T1 sequence (looked up): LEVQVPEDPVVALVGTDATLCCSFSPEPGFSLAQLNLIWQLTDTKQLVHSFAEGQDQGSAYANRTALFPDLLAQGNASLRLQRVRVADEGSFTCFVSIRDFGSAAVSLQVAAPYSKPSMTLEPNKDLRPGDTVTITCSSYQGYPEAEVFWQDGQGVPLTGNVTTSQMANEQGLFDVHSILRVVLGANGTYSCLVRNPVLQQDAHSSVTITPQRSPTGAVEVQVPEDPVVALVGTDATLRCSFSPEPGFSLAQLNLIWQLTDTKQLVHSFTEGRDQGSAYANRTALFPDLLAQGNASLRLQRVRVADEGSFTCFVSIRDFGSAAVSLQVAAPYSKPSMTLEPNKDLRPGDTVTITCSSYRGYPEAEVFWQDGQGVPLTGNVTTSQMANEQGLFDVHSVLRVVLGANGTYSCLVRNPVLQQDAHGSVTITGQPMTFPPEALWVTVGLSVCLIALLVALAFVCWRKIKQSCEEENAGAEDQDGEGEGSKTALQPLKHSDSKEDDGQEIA

T2: mouse CD276 protein (mouse, UniProt Q8VE98 29-316)
T2 construct: whole, on cells; also called mCD276; CHO-S-mCD276
T2 sequence (looked up): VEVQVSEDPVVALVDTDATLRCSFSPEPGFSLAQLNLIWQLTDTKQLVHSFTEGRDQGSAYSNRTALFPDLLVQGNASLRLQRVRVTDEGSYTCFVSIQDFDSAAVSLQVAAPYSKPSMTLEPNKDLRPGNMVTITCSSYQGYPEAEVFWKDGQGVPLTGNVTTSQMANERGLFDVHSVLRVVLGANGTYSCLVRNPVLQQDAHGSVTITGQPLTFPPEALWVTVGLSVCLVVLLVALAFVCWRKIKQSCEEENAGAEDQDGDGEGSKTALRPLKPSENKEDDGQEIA


Key:
human CD276 protein = molecular target: T1, human CD276 protein; experiment: FACS on CHO-S-hCD276 cells
Protocol: (§1) Screening & Expansion—The subcloning plates were screened by protein or cell-based Elisa, and the subclones with good binding ability were expanded to 24-wells for confirmation tests. The specificity and cross-reactivity of these subclones were confirmed with FACS analysis. Briefly, parental CHO-S cells, CHO-S-hCD276, CHO-S cell line stably over-expressing Macaca fascicularis CD276, CHO-K1 S, cell line stably over-expressing mouse CD276 were incubated with antibodies produced by each subclone respectively. Fluorescent dye-conjugated secondary antibody was used to detect the binding of the primary antibody with the cells. Median fluorescence intensity was measured by FACS analysis.

mouse CD276 protein = molecular target: T2, mouse CD276 protein; experiment: FACS on CHO-S-mCD276 cells
Protocol: as §1

[1] = molecular target: T3, Macaca fascicularis CD276 (Macaca fascicularis); experiment: FACS on CHO-S-cynoCD276 cells
T3 construct: whole, on cells; also called cynomolgus monkey CD276; cynoCD276
Protocol: as §1

Row | Binder | FACS MFI (human CD276 protein) | FACS MFI (mouse CD276 protein) | FACS MFI [1]
1 | 2-A7-B10-A3 (antibody, V domains shown, mouse monoclonal antibody (hybridoma)) VH: QVQLQQSGAELVRPGVSVKISCKGSGYTFTDYAMHWVKQSHAKSLEWIGVINTNYVNTSYNQKFKGKATMTVDKSSSTAFMELARLTSEDSAIYYCARGGKYGNYVFFFAYWGQGTLVTVSA VL: DIQMTQTTSSLSASLGDRVTISCRASQDISNYLNWYQQKPDGTVKLLIYYTSRLHSGVPSRFSGSGSGTDYSLTISNLEQEDIATYFCQQGNTLPYTFGGGTKLEIK | 58900 | 2040 | 56000
2 | 5-D1-G6-D9 (antibody, V domains shown, mouse monoclonal antibody (hybridoma)) VH: EVQLQESGAELVKPGASVKLSCKTSGLTFSTNYISWLKQKPGQSLEWIAWIYGGNGGTSYNQRFTGKAQLTVDTSSSTAYMQFSSLTTEDSAIYYCTSHDYYGGPMDYWGQGTSVTVSS VL: DIQMTQTTSSLSASLGDRVTISCRASQDISNYLNWYQQKPDGTVKLLIYFTSRLHSGVPSRFSASGSGTDYSLTISNLEQEDIATYFCQQTNTLPWTFGGGTKLEIK | 45300 | 1530 | 62200
3 | 6-D8-E7-A11 (antibody, V domains shown, mouse monoclonal antibody (hybridoma)) VH: QVHLQQPGAELVKPGASVKLSCKASGYTFTNYWMHWVKRRPGQGLEWIGMIHPNSGTTSFNEKFKSKATLTVDKSSSTAYMQLSSLTSEDSAVYYCAGYYGSSFSWFTYWGQGTLVTVSA VL: QAVVTQESALTTSPGGTVILTCRSSTGAVTTSNFANWVQEKPDHLFTGLIGGTSNRAPGVPVRFSGSLIGDKAALTITGAQTEDDAMYFCALWYSTHYVFGGGTKVTVL | 37900 | 92600 | 101000
4 | 3-F2-E7-F9 (antibody, V domains shown, mouse monoclonal antibody (hybridoma)) VH: QVQLQQSGPELVRPGVSVKISCKGSGYTFTDYTMHWVKESHAKSLEWIGVISTYYGNTNYNQKFKGKATLTVDKSSSTAYMELAGLTSEDSAIYYCARASYGSGYGPYYWYFDVWGAGTTVTVSS VL: DIQMTQSPASLFASVGETVTITCRASEKIYSYLAWYFQKQGKSPQFLVYNANALAEGVPSRFSGSGSGTQFSLKINSLQPEDFGTYYCQHHYGTPVTFGAGSKLELK | 52300 | 1140 | 35700
5 | 20-A2-D10-G8 (antibody, V domains shown, mouse monoclonal antibody (hybridoma)) VH: QVQLQQSGPELVRPGVSVKISCKGSGYTFTDYTMHWVKESHAQSLEWIGVISTYYGNTNYNQNFKGKATLTVDKSSSTAYMELAGLTSEDSAIYYCARASYGSGYGPYYWYFDVWGAGTTVTVSS VL: DIQMTQSPASLFASVGETVTITCRASEKIYSYLAWYFQKQGKSPQFLVYNANALAEGVPSRFSGSGSGTQFSLKIKSLQPEDFGTYYCQHHYGSPVTFGAGSKLELK | 77100 | 1260 | 9020

Now from value to binder:

Row | FACS MFI (human CD276 protein) | FACS MFI (mouse CD276 protein) | FACS MFI [1] | Binder
6 | 94700 | 1590 | 87900 | 27-E7-D8-C7 (antibody, V domains shown, mouse monoclonal antibody (hybridoma)) VH: EVQLQESGPELVRPGVSVKISCKGSGYTFTDYAMHWVKQSHAKSLEWIGVINTYSDNTNYNRKFKGKATMTVDKSSSTAYMELARLTSEDSAIYYCARGLLLRSQLGVYFDYWGQGTTLTVSS VL: QIVLSQSPAILSASPGEKVTMTCRASSSVSYMHWYQQKPGSSPKPWIYATSNLASGVPARFSGSGSGTSYSLTISRVEAEDAATYYCQQWSSNPWTFGGGTKLEIK
7 | 127000 | 20600 | 83500 | 18-F9-D8-G7 (antibody, V domains shown, mouse monoclonal antibody (hybridoma)) VH: EVQLQQSGPELVRPGVSVKISCKGSGYTFTDYAMHWVKQSHAQSLEWIGIINTYSGDTNYNQKFKGKATMTVDKSSSTAYMGLARLTSEDSAIFYCARGGGNYPYWYFDVWGAGTTVTVSS VL: ENVLTQSPAIMSASPGEKVTMTCRASSSVSSSYLHWYQQKSGDSPKLWIYSTSNLASGVPARFSGSGSGTSYSLTISSVEAEDAATYYCQQFSVYPLTFGAGTKLEIK
8 | 85100 | 1180 | 15200 | 24-C10-F9-G7 (antibody, V domains shown, mouse monoclonal antibody (hybridoma)) VH: EVQLQESGPELVRPGVSVKISCKGSGYTFTDHTMHWVKESHAQSLEWIGVISTYYGNTNYNQNFKGKATLTVDKSSSTAYMELAGLTSEDSAIYYCARASYGSGYGPYYWYFDVWGAGTTVTVSS VL: DIQMTQSPASLFASVGETVTITCRASEKIYSYLAWYFQKQGKSPQFLVYNANALAEGVPSRFSGSGSGTQFSLKINSLQPEDFGTYYCQHHYGTPVTFGAGSKLELK
